Data published in the supplement of paper PMC11316812.
± gives the standard deviation of the averaged measurements.

Tests used:
[1] = test system: hTERT-HMEC; assay: percentage of EdU-negative (G0-arrested) nuclei per well, 72 h; higher = more G0 arrest; conditions: reference: sequence is the full UniProt precursor, the tested protein was the secreted form or ectodomain
[2] = test system: MCF7; assay: as above; conditions: reference: sequence is the full UniProt precursor, the tested protein was the secreted form or ectodomain
[3] = protein concentration 0.0225 µM
[4] = protein concentration 0.03125 µM
[5] = protein concentration 0.3125 µM
[6] = protein concentration 0.00975 µM
[7] = protein concentration 0.0975 µM
[8] = protein concentration 0.0205 µM
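Further: secreted proteins added to cultured cells, EdU pulse at the end, nuclei found by Hoechst imaging, EdU status from nuclear versus surrounding ring intensity ratio, PBS as neutral control.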

Sequence: MPGGCSRGPAAGDGRLRLARLALVLLGWVSSSSPTSSASSFSSSAPFLASAVSAQPPLPDQCPALCECSEAARTVKCVNRNLTEVPTDLPAYVRNLFLTGNQLAVLPAGAFARRPPLAELAALNLSGSRLDEVRAGAFEHLPSLRQLDLSHNPLADLSPFAFSGSNASVSAPSPLVELILNHIVPPEDERQNRSFEGMVVAALLAGRALQGLRRLELASNHFLYLPRDVLAQLPSLRHLDLSNNSLVSLTYVSFRNLTHLESLHLEDNALKVLHNGTLAELQGLPHIRVFLDNNPWVCDCHMADMVTWLKETEVVQGKDRLTCAYPEKMRNRVLLELNSADLDCDPILPPSLQTSYVFLGIVLALIGAIFLLVLYLNRKGIKKWMHNIRDACRDHMEGYHYRYEINADPRLTNLSSNSDV
- percentage of EdU-negative [1, 3]: 4.65 ± 0.22%
- percentage of EdU-negative ([1]; protein concentration 0.225 µM): 6.38 ± 0.11%
- percentage of EdU-negative [2, 3]: 25.8 ± 1.4%
- percentage of EdU-negative ([2]; protein concentration 0.225 µM): 27.9 ± 0.44%

Sequence: MPGGPGVLQALPATIFLLFLLSAVYLGPGCQALWMHKVPASLMVSLGEDAHFQCPHNSSNNANVTWWRVLHGNYTWPPEFLGPGEDPNGTLIIQNVNKSHGGIYVCRVQEGNESYQQSCGTYLRVRQPPPRPFLDMGEGTKNRIITAEGIILLFCAVVPGTLLLFRKRWQNEKLGLDAGDEYEDENLYEGLNLDDCSMYEDISRGLQGTYQDVGSLNIGDVQLEKP
- percentage of EdU-negative [1, 3]: 5.39 ± 0.06%
- percentage of EdU-negative ([1]; protein concentration 0.225 µM): 5.986 ± 0.025%
- percentage of EdU-negative [2, 3]: 25.3 ± 0.85%
- percentage of EdU-negative ([2]; protein concentration 0.225 µM): 27 ± 1.2%

Sequence: MPGIKRILTVTILALCLPSPGNAQAQCTNGFDLDRQSGQCLDIDECRTIPEACRGDMMCVNQNGGYLCIPRTNPVYRGPYSNPYSTPYSGPYPAAAPPLSAPNYPTISRPLICRFGYQMDESNQCVDVDECATDSHQCNPTQICINTEGGYTCSCTDGYWLLEGQCLDIDECRYGYCQQLCANVPGSYSCTCNPGFTLNEDGRSCQDVNECATENPCVQTCVNTYGSFICRCDPGYELEEDGVHCSDMDECSFSEFLCQHECVNQPGTYFCSCPPGYILLDDNRSCQDINECEHRNHTCNLQQTCYNLQGGFKCIDPIRCEEPYLRISDNRCMCPAENPGCRDQPFTILYRDMDVVSGRSVPADIFQMQATTRYPGAYYIFQIKSGNEGREFYMRQTGPISATLVMTRPIKGPREIQLDLEMITVNTVINFRGSSVIRLRIYVSQYPF [Q9UBX5]
- percentage of EdU-negative [1, 4]: 4.99 ± 0.79%
- percentage of EdU-negative [1, 5]: 6.25 ± 1.1%
- percentage of EdU-negative [2, 4]: 27.1 ± 1%
- percentage of EdU-negative [2, 5]: 26.6 ± 2%

Sequence: MPGLRRDRLLTLLLLGALLSADLYFHLWPQVQRQLRPRERPRGCPCTGRASSLARDSAAAASDPGTIVHNFSRTEPRTEPAGGSHSGSSSKLQALFAHPLYNVPEEPPLLGAEDSLLASQEALRYYRRKVARWNRRHKMYREQMNLTSLDPPLQLRLEASWVQFHLGINRHGLYSRSSPVVSKLLQDMRHFPTISADYSQDEKALLGACDCTQIVKPSGVHLKLVLRFSDFGKAMFKPMRQQRDEETPVDFFYFIDFQRHNAEIAAFHLDRILDFRRVPPTVGRIVNVTKEILEVTKNEILQSVFFVSPASNVCFFAKCPYMCKTEYAVCGNPHLLEGSLSAFLPSLNLAPRLSVPNPWIRSYTLAGKEEWEVNPLYCDTVKQIYPYNNSQRLLNVIDMAIFDFLIGNMDRHHYEMFTKFGDDGFLIHLDNARGFGRHSHDEISILSPLSQCCMIKKKTLLHLQLLAQADYRLSDVMRESLLEDQLSPVLTEPHLLALDRRLQTILRTVEGCIVAHGQQSVIVDGPVEQLAPDSGQANLTS [Q96MK3]
- percentage of EdU-negative ([1]; protein concentration 0.014 µM): 6.29 ± 0.36%
- percentage of EdU-negative ([1]; protein concentration 0.14 µM): 27.9 ± 9.3%
- percentage of EdU-negative ([2]; protein concentration 0.014 µM): 24 ± 3.4%
- percentage of EdU-negative ([2]; protein concentration 0.14 µM): 30.6 ± 0.74%

Sequence: MPGPRRPAGSRLRLLLLLLLPPLLLLLRGSHAGNLTVAVVLPLANTSYPWSWARVGPAVELALAQVKARPDLLPGWTVRTVLGSSENALGVCSDTAAPLAAVDLKWEHNPAVFLGPGCVYAAAPVGRFTAHWRVPLLTAGAPALGFGVKDEYALTTRAGPSYAKLGDFVAALHRRLGWERQALMLYAYRPGDEEHCFFLVEGLFMRVRDRLNITVDHLEFAEDDLSHYTRLLRTMPRKGRVIYICSSPDAFRTLMLLALEAGLCGEDYVFFHLDIFGQSLQGGQGPAPRRPWERGDGQDVSARQAFQAAKIITYKDPDNPEYLEFLKQLKHLAYEQFNFTMEDGLVNTIPASFHDGLLLYIQAVTETLAHGGTVTDGENITQRMWNRSFQGVTGYLKIDSSGDRETDFSLWDMDPENGAFRVVLNYNGTSQELVAVSGRKLNWPLGYPPPDIPKCGFDNEDPACNQDHLSTLEVLALVGSLSLLGILIVSFFIYRKMQLEKELASELWRVRWEDVEPSSLERHLRSAGSRLTLSGRGSNYGSLLTTEGQFQVFAKTAYYKGNLVAVKRVNRKRIELTRKVLFELKHMRDVQNEHLTRFVGACTDPPNICILTEYCPRGSLQDILENESITLDWMFRYSLTNDIVKGMLFLHNGAICSHGNLKSSNCVVDGRFVLKITDYGLESFRDLDPEQGHTVYAKKLWTAPELLRMASPPVRGSQAGDVYSFGIILQEIALRSGVFHVEGLDLSPKEIIERVTRGEQPPFRPSLALQSHLEELGLLMQRCWAEDPQERPPFQQIRLTLRKFNRENSSNILDNLLSRMEQYANNLEELVEERTQAYLEEKRKAEALLYQILPHSVAEQLKRGETVQAEAFDSVTIYFSDIVGFTALSAESTPMQVVTLLNDLYTCFDAVIDNFDVYKVETIGDAYMVVSGLPVRNGRLHACEVARMALALLDAVRSFRIRHRPQEQLRLRIGIHTGPVCAGVVGLKMPRYCLFGDTVNTASRMESNGEALKIHLSSETKAVLEEFGGFELELRGDVEMKGKGKVRTYWLLGERGSSTRG
- percentage of EdU-negative [1, 6]: 4.49 ± 0.51%
- percentage of EdU-negative [1, 7]: 7.62 ± 0.42%
- percentage of EdU-negative [2, 6]: 23.4 ± 0.38%
- percentage of EdU-negative [2, 7]: 29.51 ± 0.041%

Sequence: MPGPRVWGKYLWRSPHSKGCPGAMWWLLLWGVLQACPTRGSVLLAQELPQQLTSPGYPEPYGKGQESSTDIKAPEGFAVRLVFQDFDLEPSQDCAGDSVTISFVGSDPSQFCGQQGSPLGRPPGQREFVSSGRSLRLTFRTQPSSENKTAHLHKGFLALYQTVAVNYSQPISEASRGSEAINAPGDNPAKVQNHCQEPYYQAAAAGALTCATPGTWKDRQDGEEVLQCMPVCGRPVTPIAQNQTTLGSSRAKLGNFPWQAFTSIHGRGGGALLGDRWILTAAHTIYPKDSVSLRKNQSVNVFLGHTAIDEMLKLGNHPVHRVVVHPDYRQNESHNFSGDIALLELQHSIPLGPNVLPVCLPDNETLYRSGLLGYVSGFGMEMGWLTTELKYSRLPVAPREACNAWLQKRQRPEVFSDNMFCVGDETQRHSVCQGDSGSVYVVWDNHAHHWVATGIVSWGIGCGEGYDFYTKVLSYVDWIKGVMNGKN [Q9NZP8]
- percentage of EdU-negative [1, 8]: 6.35 ± 0.51%
- percentage of EdU-negative ([1]; protein concentration 0.205 µM): 7.52 ± 1.6%
- percentage of EdU-negative [2, 8]: 25.9 ± 0.29%
- percentage of EdU-negative ([2]; protein concentration 0.205 µM): 26.4 ± 0.027%
